Measured values reported in patent US20050169919A1 (published 2005).
Values belong to the molecule of their own block, whether it stands above or below them.

B1: B7 antigen (B7-1) stably expressed on CHO cells (ligand, human, UniProt P33681 35-288, looked up)
chain: VIHVTKEVKEVATLSCGHNVSVEELAQTRIYWQKEKKMVLTMMSGDMNIWPEYKNRTIFDITNNLSIVILALRPSDEGTYECVVLKYEKDAFKREHLAEVTLSVKADFPTPSISDFEIPTSNIRRIICSTSGGFPEPHLSWLENGEELNAINTTVSQDPETELYAVSSKLDFNMTTNHSFMCLIKYGHLRVNQTFNWNTTKQEHFPDNLLPSWAITLISVNGIFVICCLTYCFAPRCRERRRNERLRRESVRPV
notes: whole, on cells; also called B7/BB-1; CD80

Experiments:
[1] = target: B7 antigen on lymphoblastoid cell line (PM LCL) (human) (UniProt P33681); experiment: cell-based or functional assay
[2] = target: B7Ig fusion protein (human) (UniProt P33681); experiment: solid phase competition for binding of 125I-B7Ig (4 nM) to immobilized CTLA4Ig
CTLA4Ig fusion protein = target: T1, CTLA4Ig fusion protein (human, UniProt P01857-1 99-330 = IgG part); experiment: immunoprecipitation from 125I surface-labeled B7+ CHO extract, SDS-PAGE
T1 construct: domain: hinge, CH2 and CH3 regions; also called wild-type CTLA4Ig; human CTLA4Ig
Experimental: Immunoprecipitation Analysis and SDS PAGE. Cells were surface-labeled with ¹²⁵I and subjected to immunoprecipitation analysis. […] SDS-PAGE chromatography was performed on linear acrylamide gradients gels with stacking gels of 5% acrylamide. Gels were stained with Coomassie Blue, destained, and photographed or dried and exposed to X ray film (Kodak XAR-5).
B7⁺ CHO and PM LCL cells were surface-labeled with ¹²⁵I, and extracted with a non-ionic detergent solution as described above. […] Washed immunoprecipitates were then analyzed by SDS-PAGE (10-20% acrylamide gradient) under reducing conditions. The gel was then dried and subjected to autoradiography.

[3] = target: B1; experiment: indirect cell binding enzyme immunoassay on ethanol-fixed B7-1+ CHO cells
Experimental: Round bottom tissue culture treated 96 well microtiter plates (Corning, Corning, N.Y.) were seeded with B7-1 positive CHO cells at 10³ cells/well.

Molecule: B1
binding result (CTLA4Ig fusion protein): binds

B2: CTLA4/CD28Ig hybrid fusion protein HS6 (Fc fusion, human)
chain: AMHVAQPAVVLASSRGIASFVCEYSYNLFSREVRVTVLRQADSQVTEVCAATYMMGNELTFLDDSICTGTSSGNQVNLTIQGLRAMDTGLYICKVELMYPPPYYLGIGNGTQIYVIDPEPCPD
notes: range 25-32; not shown: hinge and constant regions of human IgG1, hinge cysteines mutated; junction printed DQE
binding result [3]: binds

Results, then the molecule that gave them:

inhibition of Th-induced IgM production by allogeneic CD19+ B cells (ELISA) [1]: 65%
IC50 [2]: 22 nM
Molecule: murine monoclonal antibody BB-1 (anti-B7 antigen)

binding result [3]: binds
B3: CTLA4/CD28Ig hybrid fusion protein HS2 (Fc fusion, human)
chain: AMHVAQPAVVLASSRGIASFVCKYSYNLFSREFRASLHKGLDSAVEVCVVYGNYSQQLQVYSKTGFNCDGKLGNESVTFYLQNLYVNQTDIYFCKIELMYPPPYYLGIGNGTQIYVIDPEPCPD
notes: range 23-96; not shown: hinge and constant regions of human IgG1, hinge cysteines mutated; junction printed DQE
